B1: Endoribonuclease ZC3H12A (Mus musculus), Q5D1E7 (parent)
chain: MSDPCGTKPVQESNPTMSLWSLEDRHSSQGRPQPDQDPVAKEAPTSELQMKVDFFRKLGYSSSEIHSVLQKLGVQADTNTVLGELVKHGSATERECQALTAPSPQPPLVPRGGSTPKPSTLEPSLPEEDREGSDLRPVVIDGSNVAMSHGNKEVFSCRGILLAVNWFLERGHTDITVFVPSWRKEQPRPDVPITDQHILRELEKKKILVFTPSRRVGGKRVVCYDDRFIVKLAFESDGVVVSNDTYRDLQGERQEWKRFIEERLLMYSFVNDKFMPPDDPLGRHGPSLDNFLRKKPLPSEHRKQPCPYGKKCTYGIKCRFFHPERPSRPQRSVADELRANALLSPPRTPVKDKSSQRPSPASQSSSVSLEAEPGSLDGKKLGARSSPGPHREGSPQTCAPAGRSLPVSGGSFGPTEWLAHTQDSLPYTSQECLDSGIGSLESQMSELWGVRGGSPGESGPTRGPYAGYHSYGSKVPAAPSFSPFRPAMGAGHFSVPTDYVPPPPTYPSREYWSEPYPLPPPTPVLQEPQRPSPGAGGGPWGRVGDLAKERAGVYTKLCGVFPPHLVEAVMRRFPQLLDPQQLAAEILSYKSQHLSE
partner: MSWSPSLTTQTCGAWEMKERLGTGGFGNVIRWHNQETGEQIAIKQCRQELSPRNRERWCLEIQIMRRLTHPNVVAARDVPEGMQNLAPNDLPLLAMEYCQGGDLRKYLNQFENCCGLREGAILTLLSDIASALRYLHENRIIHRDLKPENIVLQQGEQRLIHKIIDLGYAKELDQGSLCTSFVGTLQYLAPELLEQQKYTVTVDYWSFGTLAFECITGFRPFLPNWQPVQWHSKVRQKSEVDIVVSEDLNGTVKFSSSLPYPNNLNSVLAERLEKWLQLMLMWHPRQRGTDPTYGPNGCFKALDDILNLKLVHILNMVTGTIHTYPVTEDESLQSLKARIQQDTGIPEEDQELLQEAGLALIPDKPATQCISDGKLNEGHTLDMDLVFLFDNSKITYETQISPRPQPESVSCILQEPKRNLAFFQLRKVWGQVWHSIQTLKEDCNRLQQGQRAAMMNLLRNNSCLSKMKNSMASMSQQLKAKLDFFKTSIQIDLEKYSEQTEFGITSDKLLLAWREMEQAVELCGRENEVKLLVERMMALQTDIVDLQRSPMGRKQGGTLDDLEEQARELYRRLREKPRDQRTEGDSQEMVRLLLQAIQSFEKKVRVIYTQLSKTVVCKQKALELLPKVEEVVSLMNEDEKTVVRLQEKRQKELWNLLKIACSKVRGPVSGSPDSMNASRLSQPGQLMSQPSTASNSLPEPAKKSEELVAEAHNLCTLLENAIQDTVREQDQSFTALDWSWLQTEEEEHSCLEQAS

Variants of: B1
Settings: with ikkb_human IKBKB

Variant | effect of a mutation on the interaction
MSDPCGTKPVQESNPTMSLWSLEDRHSSQGRPQPDQDPVAKEAPTSELQMKVDFFRKLGYSSSEIHSVLQKLGVQADTNTVLGELVKHGSATERECQALTAPSPQPPLVPRGGSTPKPSTLEPSLPEEDREGSDLRPVVIDGSNVAMSHGNKEVFSCRGILLAVNWFLERGHTDITVFVPSWRKEQPRPDVPITDQHILRELEKKKILVFTPSRRVGGKRVVCYDDRFIVKLAFESDGVVVSNDTYRDLQGERQEWKRFIEERLLMYSFVNDKFMPPDDPLGRHGPSLDNFLRKKPLPSEHRKQPCPYGKKCTYGIKCRFFHPERPSRPQRSVADELRANALLSPPRTPVKDKSSQRPSPASQSSSVSLEAEPGSLDGKKLGARSSPGPHREGSPQTCAPAGRSLPVSGGSFGPTEWLAHTQDSLPYTSQECLDSGIGALESQMSELWGVRGGSPGESGPTRGPYAGYHSYGSKVPAAPSFSPFRPAMGAGHFSVPTDYVPPPPTYPSREYWSEPYPLPPPTPVLQEPQRPSPGAGGGPWGRVGDLAKERAGVYTKLCGVFPPHLVEAVMRRFPQLLDPQQLAAEILSYKSQHLSE [S439A] | decreasing interaction
MSDPCGTKPVQESNPTMSLWSLEDRHSSQGRPQPDQDPVAKEAPTSELQMKVDFFRKLGYSSSEIHSVLQKLGVQADTNTVLGELVKHGSATERECQALTAPSPQPPLVPRGGSTPKPSTLEPSLPEEDREGSDLRPVVIDGSNVAMSHGNKEVFSCRGILLAVNWFLERGHTDITVFVPSWRKEQPRPDVPITDQHILRELEKKKILVFTPSRRVGGKRVVCYDDRFIVKLAFESDGVVVSNDTYRDLQGERQEWKRFIEERLLMYSFVNDKFMPPDDPLGRHGPSLDNFLRKKPLPSEHRKQPCPYGKKCTYGIKCRFFHPERPSRPQRSVADELRANALLSPPRTPVKDKSSQRPSPASQSSSVSLEAEPGSLDGKKLGARSSPGPHREGSPQTCAPAGRSLPVSGGSFGPTEWLAHTQDSLPYTSQECLDAGIGALESQMSELWGVRGGSPGESGPTRGPYAGYHSYGSKVPAAPSFSPFRPAMGAGHFSVPTDYVPPPPTYPSREYWSEPYPLPPPTPVLQEPQRPSPGAGGGPWGRVGDLAKERAGVYTKLCGVFPPHLVEAVMRRFPQLLDPQQLAAEILSYKSQHLSE [S435A;S439A] | decreasing interaction
MSDPCGTKPVQESNPTMSLWSLEDRHSSQGRPQPDQDPVAKEAPTSELQMKVDFFRKLGYSSSEIHSVLQKLGVQADTNTVLGELVKHGSATERECQALTAPSPQPPLVPRGGSTPKPSTLEPSLPEEDREGSDLRPVVIDGSNVAMSHGNKEVFSCRGILLAVNWFLERGHTDITVFVPSWRKEQPRPDVPITDQHILRELEKKKILVFTPSRRVGGKRVVCYDDRFIVKLAFESDGVVVSNDTYRDLQGERQEWKRFIEERLLMYSFVNDKFMPPDDPLGRHGPSLDNFLRKKPLPSEHRKQPCPYGKKCTYGIKCRFFHPERPSRPQRSVADELRANALLSPPRTPVKDKSSQRPSPASQSSSVSLEAEPGSLDGKKLGARSSPGPHREGSPQTCAPAGRSLPVSGGSFGPTEWLAHTQDSLPYTSQECLDAGIGSLESQMSELWGVRGGSPGESGPTRGPYAGYHSYGSKVPAAPSFSPFRPAMGAGHFSVPTDYVPPPPTYPSREYWSEPYPLPPPTPVLQEPQRPSPGAGGGPWGRVGDLAKERAGVYTKLCGVFPPHLVEAVMRRFPQLLDPQQLAAEILSYKSQHLSE [S435A] | decreasing interaction
